# Assay results from patent US7691806B2, “Repeat sequence protein polymer active agent congjugates, methods and uses” (priority 2003, dated 2010).
# B1: SELP47K-P4 (protein)
# chain: MDPVVLQRRDWENPGVTQLNRLAAHPPFASDPMGAGAGSGAGAGSALSYPGVGVPGVGVPGVGVPGVGVPGKGVPGVGVPGVGVPGVGVPALSYPGAGAGSGAGAGSGAGAGSGAGAGSALSYPGVGVPGVGVPGVGVPGVGVPGKGVPGVGVPGVGVPGVGVPALSYPGAGAGSGAGAGSGAGAGSGAGAGSALSYPGVGVPGVGVPGVGVPGVGVPGKGVPGVGVPGVGVPGVGVPALSYPGAGAGSGAGAGSGAGAGSGAGAGSALSYPGVGVPGVGVPGVGVPGVGVPGKGVPGVGVPGVGVPGVGVPALSYPGAGAGSGAGAGSGAGAGSGAGAGSALSYPGVGVPGVGVPGVGVPGVGVPGKGVPGVGVPGVGVPGVGVPALSYPGAGAGSGAGAGSGAGAGSGAGAGSALSYPGVGVPGVGVPGVGVPGVGVPGKGVPGVGVPGVGVPGVGVPALSYPGAGAGSGAGAGSGAGAGSGAGAGSALSYPGVGVPGVGVPGVGVPGVGVPGKGVPGVGVPGVGVPGVGVPALSYPGAGAGSGAGAGSGAGAGSGAGAGSALSYPGVGVPGVGVPGVGVPGVGVPGKGVPGVGVPGVGVPGVGVPALSYPGAGAGSGAGAGSGAGAGSGAGAGSALSYPGVGVPGVGVPGVGVPGVGVPGKGVPGVGVPGVGVPGVGVPALSYPGAGAGSGAGAGSGAGAGSGAGAGSALSYPGVGVPGVGVPGVGVPGVGVPGKGVPGVGVPGVGVPGVGVPALSYPGAGAGSGAGAGSGAGAGSGAGAGSALSYPGVGVPGVGVPGVGVPGVGVPGKGVPGVGVPGVGVPGVGVPALSYPGAGAGSGAGAGSGAGAGSGAGAGSALSYPGVGVPGVGVPGVGVPGVGVPGKGVPGVGVPGVGVPGVGVPALSYPGAGAGSGAGAGSGAGAGSGAGAGSALSYPGVGVPGVGVPGVGVPGVGVPGKGVPGVGVPGVGVPGVGVPALSYPGAGAGSGAGAGSGAGAMDPGRYQDLRSHHHHHH
# modifications: P4-SELP47K silk, elastin ad UV-protective peptides
# System: Human dermal fibroblasts
# Experiment: Fibroblast cell survival after UVB exposure (MTT assay)
# Type: cell-based
# Settings: UVB approximately 50 mj/cm^2, treated after exposure, MTT 48 hours later
# Text: Construction, analysis and verification of the SELP47K-P4 (SEQ. ID. NO. 36) conjugate proceeded as follows. SELP constructs in which all polymer subunits contain additional P4 (ALSYP) peptide sequences were made as follows: Artificial gene synthesis was used to create a 2 subunit version of the desired construct in which each identical subunit contains a unique non-palindromic restriction site. Specifically, SELP subunits contained either BBI derived P4 sequences (Seq ALSYP) incorporated in two places per subunit, flanking the silk region, incorporated between the C-terminal end of the silk region and the N-terminal end of the elastin region. A BsgI restriction enzyme cleavage site was designed within each subunit. Gene construction was carried out by Blue Heron Biotechnology (Bothell, Wash.). […] Resulting modified SELP monomers as well as plasmid vector were purified from agarose gels and concentrated using a Spin Vac. Monomers were self ligated using T4 DNA ligase (New England Biolabs) as per manufacturer's instructions overnight at 16 C. Original purified vector was added to ligation mix with additional fresh ligase and incubated at 16 C for an additional 24 hrs. Ligation mix was used to transform E. coli TOP10 cells (Invitrogen) as per manufacturer's instructions. Resulting transformants were used to inoculate culture tubes containing 5 ml Luria broth and appropriate antibiotic. […]
molecule,measurement,value
B1,viability improvement of UV treated human fibroblast cells,100%
